# Measurements as given in patent US20150306011.
# B1: PCAF histone acetylase enzyme (protein)
# chain: MLEEEVYSQNSPIWDQDFLSASSRTSQLGIQTVINPPPVAGTISYNSTSSSLEQPNAGSSSPACKASSGLEANPGEKRKMTDSHVLEEAKKPRVMGDIPMELINEVMSTITDPAAMLGPETNFLSAHSARDEAARLEERRGVIEFHVVGNSLNQKPNKKILMWLVGLQNVFSHQLPRMPKEYITRLVFDPKHKTLALIKDGRVIGGICFRMFPSQGFTEIVFCAVTSNEQVKGYGTHLMNHLKEYHIKHDILNFLTYADEYAIGYFKKQGFSKEIKIPKTKYVGYIKDYEGATLMGCELNPRIPYTE
# Biological target: histone H3 (acid extracted histones from untreated HeLa cells), P68431
protein,measurement,value
B1,"histone H3 acetylation in PCAF HAT reaction (immunoblot, diacetylated H3 Ac-Lys9+Ac-Lys14)",35-fold increase
